Legend:
Fer (mouse) = assay: phosphorylation enrichment, bacterial display (enrichment ratio); higher = better substrate or ligand; peptides without Tyr show the background
Fes = Fes (UniProt P07332); assay: as above
Fyn = Fyn (UniProt P06241); assay: as above
EPHB1 = EPHB1 (UniProt P54762); assay: as above
c-Abl (mouse) = assay: as above
Hck = Hck (UniProt P08631); assay: as above
FGFR3 = FGFR3 (UniProt P22607); assay: as above
EPHB2 = EPHB2 (UniProt P29323); assay: as above
MERTK = MERTK (UniProt Q12866); assay: as above
Sequence of MERTK (Q12866 whole entry, looked up): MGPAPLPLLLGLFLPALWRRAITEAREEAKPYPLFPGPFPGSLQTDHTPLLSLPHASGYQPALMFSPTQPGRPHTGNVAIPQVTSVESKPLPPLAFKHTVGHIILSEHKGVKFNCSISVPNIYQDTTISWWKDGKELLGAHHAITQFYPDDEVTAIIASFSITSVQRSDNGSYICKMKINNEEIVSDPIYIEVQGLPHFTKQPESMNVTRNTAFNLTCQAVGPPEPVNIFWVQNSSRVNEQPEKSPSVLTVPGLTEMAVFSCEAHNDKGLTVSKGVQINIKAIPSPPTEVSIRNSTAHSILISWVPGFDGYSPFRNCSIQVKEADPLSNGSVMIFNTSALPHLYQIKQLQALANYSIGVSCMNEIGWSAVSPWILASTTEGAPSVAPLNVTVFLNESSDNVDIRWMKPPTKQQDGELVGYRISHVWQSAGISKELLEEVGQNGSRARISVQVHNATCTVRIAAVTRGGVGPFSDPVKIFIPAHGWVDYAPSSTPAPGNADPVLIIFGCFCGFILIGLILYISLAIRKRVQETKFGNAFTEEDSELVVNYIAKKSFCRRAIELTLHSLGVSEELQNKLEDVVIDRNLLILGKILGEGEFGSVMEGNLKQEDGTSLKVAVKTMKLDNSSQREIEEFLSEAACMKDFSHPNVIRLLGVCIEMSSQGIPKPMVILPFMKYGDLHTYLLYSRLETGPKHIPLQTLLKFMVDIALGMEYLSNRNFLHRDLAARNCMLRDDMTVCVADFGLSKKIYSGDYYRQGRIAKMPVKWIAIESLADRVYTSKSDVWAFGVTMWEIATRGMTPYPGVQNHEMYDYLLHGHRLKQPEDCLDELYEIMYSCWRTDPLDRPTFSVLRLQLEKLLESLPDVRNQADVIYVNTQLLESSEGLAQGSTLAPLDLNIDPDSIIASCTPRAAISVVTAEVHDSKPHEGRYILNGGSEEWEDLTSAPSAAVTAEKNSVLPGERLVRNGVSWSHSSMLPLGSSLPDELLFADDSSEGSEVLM

c-Src = assay: as above
FGFR1 = FGFR1 (UniProt P11362); assay: as above
Jak2 = Jak2 (UniProt O60674); assay: as above
AncSZ = assay: as above
SHP2-C SH2 = assay: SH2 binding enrichment of the phosphorylated peptide, bacterial display (enrichment ratio); higher = better substrate or ligand; peptides without Tyr show the background
Grb2 SH2 = Grb2 SH2 (UniProt P62993); assay: as above
Sequence of Grb2 SH2 (P62993 whole entry, looked up): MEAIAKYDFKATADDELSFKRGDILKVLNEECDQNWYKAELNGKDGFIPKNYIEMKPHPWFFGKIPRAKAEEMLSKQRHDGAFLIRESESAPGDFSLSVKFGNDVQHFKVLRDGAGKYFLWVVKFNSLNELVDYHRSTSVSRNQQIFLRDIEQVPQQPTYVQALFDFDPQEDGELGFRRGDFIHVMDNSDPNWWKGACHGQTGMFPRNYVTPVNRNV

c-Src SH2 = assay: as above
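For SH2 binding enrichment of the phosphorylated peptide, bacterial display in this document: peptide library displayed on the E. coli surface as eCPX fusions, selected cells deep-sequenced, score is each peptide's frequency after selection divided by its frequency in the input.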
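For phosphorylation enrichment, bacterial display in this document: 11-residue human phosphosite peptides and single-mutation variants displayed on the E. coli surface, counted by deep sequencing, each peptide's frequency after selection divided by its frequency in the unselected input library; frequency after pTyr selection over input frequency; kinase dosed for 20-30% of maximal phosphorylation in three min.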

Sequence of EPHB2 (P29323 whole entry, looked up): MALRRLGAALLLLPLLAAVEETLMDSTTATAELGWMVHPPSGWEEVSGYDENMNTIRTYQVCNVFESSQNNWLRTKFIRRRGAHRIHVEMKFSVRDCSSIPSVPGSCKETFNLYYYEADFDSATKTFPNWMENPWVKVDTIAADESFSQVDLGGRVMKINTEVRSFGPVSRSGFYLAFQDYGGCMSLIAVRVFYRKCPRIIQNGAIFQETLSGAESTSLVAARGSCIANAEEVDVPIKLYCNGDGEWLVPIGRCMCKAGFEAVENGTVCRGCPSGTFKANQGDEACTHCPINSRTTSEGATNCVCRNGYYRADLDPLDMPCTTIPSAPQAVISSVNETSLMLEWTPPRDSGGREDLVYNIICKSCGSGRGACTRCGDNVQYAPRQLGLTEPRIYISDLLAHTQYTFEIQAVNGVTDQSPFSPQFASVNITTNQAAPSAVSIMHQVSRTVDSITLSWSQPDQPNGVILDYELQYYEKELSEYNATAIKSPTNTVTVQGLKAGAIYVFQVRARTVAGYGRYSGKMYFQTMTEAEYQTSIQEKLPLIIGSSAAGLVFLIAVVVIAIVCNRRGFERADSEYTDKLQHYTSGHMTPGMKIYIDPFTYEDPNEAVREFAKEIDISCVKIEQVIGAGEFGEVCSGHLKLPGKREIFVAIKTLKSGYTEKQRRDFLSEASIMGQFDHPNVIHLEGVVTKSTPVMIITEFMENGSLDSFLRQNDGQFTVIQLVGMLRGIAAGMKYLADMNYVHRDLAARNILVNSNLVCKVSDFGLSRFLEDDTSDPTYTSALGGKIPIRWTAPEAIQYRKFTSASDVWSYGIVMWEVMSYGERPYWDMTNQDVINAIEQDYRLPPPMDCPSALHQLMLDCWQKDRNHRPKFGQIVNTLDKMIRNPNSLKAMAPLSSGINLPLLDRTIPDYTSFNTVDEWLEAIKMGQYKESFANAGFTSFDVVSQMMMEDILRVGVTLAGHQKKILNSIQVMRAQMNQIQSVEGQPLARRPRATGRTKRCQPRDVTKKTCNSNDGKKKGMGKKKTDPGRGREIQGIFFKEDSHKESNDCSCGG
Sequence of Fes (P07332 whole entry, looked up): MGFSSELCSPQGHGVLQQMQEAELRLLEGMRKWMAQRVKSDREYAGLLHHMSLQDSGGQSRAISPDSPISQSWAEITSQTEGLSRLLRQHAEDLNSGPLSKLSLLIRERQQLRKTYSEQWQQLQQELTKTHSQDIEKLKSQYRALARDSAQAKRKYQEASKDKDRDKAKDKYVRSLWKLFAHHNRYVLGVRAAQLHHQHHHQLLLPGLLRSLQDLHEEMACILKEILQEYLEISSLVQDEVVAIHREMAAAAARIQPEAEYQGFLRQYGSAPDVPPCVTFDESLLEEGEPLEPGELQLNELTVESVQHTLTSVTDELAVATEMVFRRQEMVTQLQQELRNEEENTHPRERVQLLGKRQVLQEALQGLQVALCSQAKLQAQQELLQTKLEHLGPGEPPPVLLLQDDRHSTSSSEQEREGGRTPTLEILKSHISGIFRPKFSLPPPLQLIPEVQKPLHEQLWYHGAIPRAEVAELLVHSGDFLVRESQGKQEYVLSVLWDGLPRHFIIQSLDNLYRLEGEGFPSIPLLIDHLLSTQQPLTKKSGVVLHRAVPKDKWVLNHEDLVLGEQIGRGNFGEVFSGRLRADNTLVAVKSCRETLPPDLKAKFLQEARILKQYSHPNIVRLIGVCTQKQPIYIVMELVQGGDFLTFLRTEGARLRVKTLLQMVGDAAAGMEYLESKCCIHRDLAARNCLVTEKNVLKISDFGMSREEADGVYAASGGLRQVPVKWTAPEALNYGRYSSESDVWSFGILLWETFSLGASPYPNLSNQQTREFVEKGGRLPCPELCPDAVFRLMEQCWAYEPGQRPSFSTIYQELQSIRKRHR
Sequence of Hck (P08631 whole entry, looked up): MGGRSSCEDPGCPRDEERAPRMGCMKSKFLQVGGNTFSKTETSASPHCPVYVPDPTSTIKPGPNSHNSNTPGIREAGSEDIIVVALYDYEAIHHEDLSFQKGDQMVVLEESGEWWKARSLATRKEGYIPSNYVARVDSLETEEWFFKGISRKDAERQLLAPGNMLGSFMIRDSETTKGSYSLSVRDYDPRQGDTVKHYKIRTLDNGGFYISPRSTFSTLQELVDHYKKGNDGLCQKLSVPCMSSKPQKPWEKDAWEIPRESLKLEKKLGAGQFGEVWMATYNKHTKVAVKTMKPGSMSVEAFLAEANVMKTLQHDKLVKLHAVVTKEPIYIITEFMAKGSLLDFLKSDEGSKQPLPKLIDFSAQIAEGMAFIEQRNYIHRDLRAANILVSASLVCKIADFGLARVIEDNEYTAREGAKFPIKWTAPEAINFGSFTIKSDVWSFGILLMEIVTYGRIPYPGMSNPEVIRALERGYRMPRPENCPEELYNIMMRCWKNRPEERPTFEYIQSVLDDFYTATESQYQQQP
Sequence of Fyn (P06241 whole entry, looked up): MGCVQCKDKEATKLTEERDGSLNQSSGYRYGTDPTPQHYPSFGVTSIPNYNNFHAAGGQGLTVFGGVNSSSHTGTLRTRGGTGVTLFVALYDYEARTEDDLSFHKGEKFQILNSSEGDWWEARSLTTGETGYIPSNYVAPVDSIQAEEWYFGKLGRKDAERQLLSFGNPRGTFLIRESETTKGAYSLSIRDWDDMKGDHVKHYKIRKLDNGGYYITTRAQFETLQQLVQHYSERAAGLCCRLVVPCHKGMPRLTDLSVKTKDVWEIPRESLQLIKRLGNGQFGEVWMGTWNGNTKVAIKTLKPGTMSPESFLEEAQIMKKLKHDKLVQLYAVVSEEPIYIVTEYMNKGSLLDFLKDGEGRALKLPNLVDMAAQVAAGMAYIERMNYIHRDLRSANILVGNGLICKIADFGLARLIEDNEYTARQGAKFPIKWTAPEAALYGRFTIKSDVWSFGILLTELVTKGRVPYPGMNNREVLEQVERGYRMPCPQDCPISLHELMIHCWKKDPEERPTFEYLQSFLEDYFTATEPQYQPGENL
Sequence of FGFR3 (P22607 whole entry, looked up): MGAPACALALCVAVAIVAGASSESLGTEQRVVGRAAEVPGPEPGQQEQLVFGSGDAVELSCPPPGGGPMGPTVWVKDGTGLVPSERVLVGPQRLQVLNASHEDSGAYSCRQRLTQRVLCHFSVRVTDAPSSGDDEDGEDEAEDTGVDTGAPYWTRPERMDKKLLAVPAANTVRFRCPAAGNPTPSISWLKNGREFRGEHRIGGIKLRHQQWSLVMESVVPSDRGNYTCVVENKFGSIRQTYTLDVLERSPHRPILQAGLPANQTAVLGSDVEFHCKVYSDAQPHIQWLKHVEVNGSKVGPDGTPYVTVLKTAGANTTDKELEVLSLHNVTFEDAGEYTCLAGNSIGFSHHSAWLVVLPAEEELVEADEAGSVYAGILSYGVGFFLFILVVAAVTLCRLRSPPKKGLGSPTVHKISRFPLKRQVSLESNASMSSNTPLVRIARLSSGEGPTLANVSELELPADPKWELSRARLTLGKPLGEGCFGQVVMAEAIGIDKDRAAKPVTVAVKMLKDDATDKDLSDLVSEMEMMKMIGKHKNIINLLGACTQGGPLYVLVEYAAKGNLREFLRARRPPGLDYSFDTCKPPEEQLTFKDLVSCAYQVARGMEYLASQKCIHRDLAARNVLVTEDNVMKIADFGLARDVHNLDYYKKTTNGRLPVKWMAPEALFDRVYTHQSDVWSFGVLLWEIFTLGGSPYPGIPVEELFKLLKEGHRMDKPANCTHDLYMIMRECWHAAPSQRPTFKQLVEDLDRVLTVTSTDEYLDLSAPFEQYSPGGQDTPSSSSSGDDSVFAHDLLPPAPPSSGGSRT

| Sequence | phosphorylation enrichment (Fer (mouse)) | phosphorylation enrichment (Fes) | phosphorylation enrichment (Fyn) | phosphorylation enrichment (EPHB1) | phosphorylation enrichment (c-Abl (mouse)) | phosphorylation enrichment (Hck) | phosphorylation enrichment (FGFR3) | phosphorylation enrichment (EPHB2) | phosphorylation enrichment (MERTK) | phosphorylation enrichment (c-Src) | phosphorylation enrichment (FGFR1) | phosphorylation enrichment (Jak2) | phosphorylation enrichment (AncSZ) | SH2 binding enrichment (SHP2-C SH2) | SH2 binding enrichment (Grb2 SH2) | SH2 binding enrichment (c-Src SH2) |
| --- | --- | --- | --- | --- | --- | --- | --- | --- | --- | --- | --- | --- | --- | --- | --- | --- |
| GFPVRYTDVSN [DNMT3B_Y815_H814R] | 0.398 | 0.665 | 0.423 | 0.678 | 0.529 | 0.451 | 0.531 | 0.441 | 0.466 | 0.448 | 0.457 | 0.712 | 0.606 | 1.38 | 0.96 | 1.24 |
| DLQDEYDFKCK [STAT1_Y170] | 0.555 | 1.31 | 0.543 | 0.598 | 0.877 | 0.766 | 0.772 | 0.702 | 0.538 | 0.546 | 0.668 | 1.19 | 1.28 | 0.561 | 0.825 | 0.448 |
| CTTIQYNFMCN [TP53_Y234_H233Q_YF] | 0.485 | 1.01 | 0.494 | 0.499 | 0.593 | 0.611 | 0.689 | 0.49 | 0.438 | 0.5 | 0.586 | 0.853 | 0.969 | 1.68 | 2.22 | 1.87 |
| CGTPTCLAPEV [CHEK2_Y390_Y390C] | 0.54 | 1.1 | 0.504 | 0.545 | 0.759 | 0.436 | 0.627 | 0.695 | 0.491 | 0.454 | 0.566 | 0.816 | 1.18 | 0.932 | 0.904 | 0.608 |
| KWTVDYLSQVG [TYW5_Y48] | 0.391 | 1.05 | 0.443 | 0.602 | 0.635 | 0.462 | 0.63 | 0.494 | 0.373 | 0.466 | 0.605 | 0.887 | 0.953 | 0.766 | 0.886 | 0.549 |
| SVLVPYEPPEV [TP53_Y220_V217L] | 0.63 | 1.33 | 0.555 | 0.651 | 0.874 | 0.651 | 0.899 | 0.757 | 0.463 | 0.541 | 0.505 | 1.32 | 1.36 | 0.859 | 0.892 | 1.14 |
| CDLTDYLMKIL [ACTA1_Y190_R185C] | 0.541 | 1.7 | 0.478 | 0.791 | 0.83 | 0.587 | 1.02 | 0.75 | 0.416 | 0.394 | 0.476 | 1.13 | 1.39 | 0.647 | 0.973 | 0.664 |
| RETSLYKACER [ASB2_Y162_P160S] | 0.762 | 0.954 | 0.481 | 0.59 | 0.85 | 0.9 | 0.558 | 0.609 | 0.719 | 0.939 | 0.548 | 1.31 | 1 | 0.799 | 1.14 | 0.857 |
| GVRFIYTIDGS [DCX_Y105_YF] | 0.669 | 1.59 | 1.04 | 0.628 | 0.924 | 0.674 | 0.843 | 0.737 | 0.48 | 1.01 | 0.546 | 1.45 | 1.41 | 0.933 | 0.915 | 0.507 |
| CTTILYNFMCN [TP53_Y234_H233L_YF] | 0.87 | 1.22 | 1.03 | 0.584 | 0.7 | 0.979 | 0.806 | 0.622 | 1.68 | 2.16 | 0.601 | 0.957 | 0.96 | 2.2 | 2.3 | 1.79 |
| SFCFRYRCAPR [SUMF1_Y344_A348P_YF] | 0.726 | 0.69 | 0.605 | 0.527 | 0.75 | 0.633 | 0.587 | 0.549 | 0.73 | 0.701 | 0.509 | 0.811 | 0.883 | 0.584 | 0.783 | 0.486 |
| MFRVQYNSSVD [LRFN1_Y458_Q455R_YF] | 0.415 | 0.931 | 0.424 | 0.49 | 0.552 | 0.406 | 0.597 | 0.477 | 0.349 | 0.386 | 0.439 | 0.908 | 0.769 | 0.868 | 0.89 | 0.572 |
| VLTSKYPGGGG [HBA1_Y141_R142P] | 0.303 | 0.443 | 0.344 | 0.229 | 0.342 | 0.296 | 0.342 | 0.374 | 0.392 | 0.276 | 0.28 | 0.441 | 0.349 | 0.612 | 0.737 | 0.366 |
| TRVMEYISRLD [CLTCL1_Y1043] | 0.353 | 0.694 | 0.381 | 0.35 | 0.565 | 0.511 | 0.44 | 0.449 | 0.325 | 0.358 | 0.344 | 0.637 | 0.762 | 0.931 | 1.03 | 0.655 |
| WEPFGFAVTRC [PTPRT_Y412_Y412F] | 0.548 | 1.48 | 0.409 | 0.702 | 1 | 0.456 | 0.845 | 0.653 | 0.399 | 0.409 | 0.447 | 1.4 | 1.18 | 0.694 | 0.774 | 0.368 |
| QMVGMYASSFM [AVPR2_Y124_YF] | 0.904 | 1.07 | 1.59 | 0.922 | 1.48 | 1.34 | 0.782 | 0.914 | 2.31 | 1.6 | 0.73 | 1.21 | 0.981 | 0.637 | 0.626 | 0.548 |
| ENQEIYRKAFD [KPNA1_Y493_Q494R] | 0.55 | 1.13 | 0.431 | 0.618 | 0.812 | 0.499 | 0.627 | 0.798 | 0.393 | 0.451 | 0.537 | 1.3 | 0.883 | 0.719 | 0.814 | 0.397 |

| Sequence | phosphorylation enrichment (Fer (mouse)) | phosphorylation enrichment (Fes) | phosphorylation enrichment (Fyn) | phosphorylation enrichment (EPHB1) | phosphorylation enrichment (c-Abl (mouse)) | phosphorylation enrichment (Hck) | phosphorylation enrichment (FGFR3) | phosphorylation enrichment (EPHB2) | phosphorylation enrichment (MERTK) | phosphorylation enrichment (c-Src) | phosphorylation enrichment (FGFR1) | phosphorylation enrichment (Jak2) | phosphorylation enrichment (AncSZ) | SH2 binding enrichment (SHP2-C SH2) | SH2 binding enrichment (Grb2 SH2) | SH2 binding enrichment (c-Src SH2) |
| --- | --- | --- | --- | --- | --- | --- | --- | --- | --- | --- | --- | --- | --- | --- | --- | --- |
| GVSYIYTIDGS [DCX_Y105_R102S] | 0.412 | 1.08 | 5.77 | 0.618 | 0.663 | 2.71 | 0.711 | 0.498 | 1.28 | 4.85 | 0.494 | 0.944 | 1.11 | 16.3 | 0.794 | 0.726 |
| NAGAFYVLSTL [FLVCR2_Y325_A326V] | 0.525 | 1.17 | 0.464 | 0.55 | 0.69 | 0.476 | 0.699 | 0.573 | 0.705 | 0.523 | 0.483 | 0.995 | 1.03 | 0.6 | 0.634 | 0.489 |
| TTKGAYSLSVR [YES1_Y194_I198V] | 0.403 | 0.73 | 0.317 | 0.404 | 0.517 | 0.483 | 0.548 | 0.5 | 0.364 | 0.376 | 0.405 | 0.511 | 0.894 | 0.558 | 0.768 | 0.402 |
| PESILYRKFTT [NTRK1_Y701] | 0.818 | 0.9 | 0.377 | 0.668 | 0.732 | 0.538 | 0.73 | 0.52 | 0.542 | 0.632 | 0.627 | 1.14 | 1.14 | 0.81 | 0.724 | 0.412 |
| EFLQKYKGFKI [SYNE1_Y6953_YF] | 0.433 | 0.752 | 0.376 | 0.372 | 0.549 | 0.411 | 0.491 | 0.477 | 0.395 | 0.397 | 0.393 | 0.775 | 0.773 | 0.732 | 0.95 | 0.346 |
| LLTALYFISRG [KCNH2_Y780] | 0.716 | 1.69 | 0.732 | 0.645 | 1.05 | 1.24 | 0.71 | 0.859 | 3.27 | 1.81 | 0.8 | 1.25 | 1.57 | 1.99 | 2.34 | 2.43 |
| KLSHLYQDHMQ [WNT5A_Y86_C83S] | 0.647 | 0.844 | 0.442 | 0.462 | 0.616 | 0.455 | 0.703 | 0.579 | 0.437 | 0.406 | 0.439 | 0.712 | 0.794 | 0.772 | 0.832 | 0.573 |
| RTLIRYANLSN [BEST1_Y131_G135S] | 0.566 | 1.02 | 0.79 | 0.733 | 0.654 | 0.675 | 0.757 | 0.71 | 0.631 | 0.65 | 0.801 | 0.792 | 0.774 | 8.49 | 6.11 | 1.59 |
| NAGAFYALSTL [FLVCR2_Y325] | 3.19 | 0.764 | 0.567 | 0.822 | 0.608 | 0.752 | 0.649 | 0.784 | 4.76 | 1.23 | 0.61 | 0.751 | 0.784 | 0.837 | 0.979 | 0.592 |
| AIIEEYLHLND [EIF4G1_Y1253] | 0.487 | 1.19 | 0.493 | 0.564 | 0.585 | 0.492 | 0.736 | 0.498 | 0.376 | 0.411 | 0.564 | 0.959 | 1.02 | 0.855 | 0.763 | 0.446 |
| PKGTGYIKTEL [STAT1_Y701] | 0.801 | 0.835 | 0.512 | 0.411 | 0.559 | 0.748 | 1.01 | 0.557 | 0.694 | 0.635 | 0.792 | 0.986 | 0.973 | 0.893 | 0.93 | 0.446 |
| GNHVSYFQSDG [CACNA1C_Y1757_YF] | 0.369 | 0.791 | 0.458 | 0.373 | 0.517 | 0.445 | 0.488 | 0.427 | 0.443 | 0.42 | 0.495 | 0.636 | 0.656 | 0.706 | 0.84 | 0.618 |
| HNELYYEEAEH [VANGL1_Y345] | 1.81 | 1.53 | 0.751 | 1.21 | 0.936 | 0.798 | 2.08 | 0.993 | 1.11 | 0.708 | 1.63 | 1.32 | 2.06 | 0.95 | 0.871 | 0.798 |
| FSQQTYYPVSN [ABCD1_Y180_R182P] | 0.983 | 0.647 | 2.76 | 4.58 | 0.697 | 5.05 | 6.85 | 3.55 | 7.46 | 4.37 | 9.03 | 7.07 | 0.805 | 0.818 | 0.938 | 0.877 |
| RQSTLYSFFPT [MSH6_Y8_K13T] | 14.2 | 1.26 | 7.89 | 16.1 | 3.62 | 9.63 | 7.04 | 21.2 | 16.8 | 7.3 | 9.72 | 0.824 | 1.35 | 1.4 | 1 | 0.752 |
| KKIMGYSIRTI [IDS_Y490_I485K] | 0.394 | 0.571 | 0.304 | 0.41 | 0.538 | 0.387 | 0.332 | 0.405 | 0.366 | 0.364 | 0.392 | 0.537 | 0.625 | 1.2 | 1.67 | 1.32 |

Reference: the supplement of paper PMC10065799, “High-throughput profiling of sequence recognition by tyrosine kinases and SH2 domains using bacterial peptide display” (eLife, 2023)
